Data on four substances can be found in article PMC3415985.

Where only a bound is given, the exact number is not on record here.

What all share (experiment): AUC
In assay [1] the target is BirA G142A (Escherichia coli) (UniProt P06709).
The target of assay [2] is BirA I280A (Escherichia coli) (UniProt P06709).
Assay [3] has as its target BirA D176A (Escherichia coli) (UniProt P06709).
Assay [4] deals with BirA K172A (Escherichia coli) (UniProt P06709).

“BirA G142A (from UniProt P06709 1-321) (enzyme)” showed a Kd in assay [1] greater than 17 mM.
Regarding “BirA I280A (from UniProt P06709 1-321) (enzyme)”, the Kd in assay [2] was greater than 4 mM.
“BirA D176A (from UniProt P06709 1-321) (enzyme)”: in assay [3], the Kd was greater than 6 mM.
As to “BirA K172A (from UniProt P06709 1-321) (enzyme)”, the Kd in assay [4] was greater than 0.7 mM.

By Kd is commonly meant the constant that tells how readily two partners part at equilibrium. Low readings indicate tighter binding, high ones weaker binding.
